Assay [1] has as its target T1, Recombinant human Hsc70 (rhHsc70) (Homo sapiens, UniProt P11142).
T1 construct: made in house; host or cells: E. coli
Put plainly: Complexation of rhHsc70 with PEP006 or a PEP006-containing polypeptide, size exclusion HPLC chromatogram. The format is binding. As to the method:
Briefly, PEP006 peptide was reconstituted in water for injection (WFI) to a concentration of 645 μM. Recombinant human Hsc70 (rhHsc70) was diluted at a concentration of 1.66 mg/mL. Both solutions were pre-warmed in a 37° C. incubator for 10 minutes, and were combined and incubated at 37° C. for 60 minutes. The final concentration of rhHsc70 was 1 mg/mL (about 14.1 μM), and the molar ratio of PEP006 to rhHsc70 was 0.25:1, 0.5:1, 1:1, 1.5:1, 2:1, 2.5:1, and 3:1. A negative control containing only rhHsc70 at 1 mg/mL was also prepared.
A quantity of 10 μg of each sample was injected neat in triplicate for resolution by size exclusion HPLC (Alliance HPLC, Waters Model #2695 Separations Module; Dual Wavelength UV Detector, Waters Model 2487) using a chromatography column TSKgel SuperSW3000 (Tosoh Bioscience, Catalog #18675). […] UV absorbance of PEP006 peptide and rhHsc70 protein was measured at the wavelengths of 214 nm and 280 nm. The absorbance data was processed by Waters Empower (V2) software. […]
FIG. 3B is a graph showing percent complexation of a polypeptide comprising PEP006 with HSC70 over a range of polypeptide:Hsc70 molar ratios from 0.125:1 to 4:1, as calculated from size exclusion chromatography traces similar to those in FIG. 3A, using the methods described Example 6.1.1. […]
In general terms: Size exclusion chromatography separates by hydrodynamic size, large species first.

The target in assay [2] is T2, human Hsc70 (Homo sapiens, UniProt P11142).
T2 construct: made in house; host or cells: E. coli
T2 sequence (P11142 whole entry): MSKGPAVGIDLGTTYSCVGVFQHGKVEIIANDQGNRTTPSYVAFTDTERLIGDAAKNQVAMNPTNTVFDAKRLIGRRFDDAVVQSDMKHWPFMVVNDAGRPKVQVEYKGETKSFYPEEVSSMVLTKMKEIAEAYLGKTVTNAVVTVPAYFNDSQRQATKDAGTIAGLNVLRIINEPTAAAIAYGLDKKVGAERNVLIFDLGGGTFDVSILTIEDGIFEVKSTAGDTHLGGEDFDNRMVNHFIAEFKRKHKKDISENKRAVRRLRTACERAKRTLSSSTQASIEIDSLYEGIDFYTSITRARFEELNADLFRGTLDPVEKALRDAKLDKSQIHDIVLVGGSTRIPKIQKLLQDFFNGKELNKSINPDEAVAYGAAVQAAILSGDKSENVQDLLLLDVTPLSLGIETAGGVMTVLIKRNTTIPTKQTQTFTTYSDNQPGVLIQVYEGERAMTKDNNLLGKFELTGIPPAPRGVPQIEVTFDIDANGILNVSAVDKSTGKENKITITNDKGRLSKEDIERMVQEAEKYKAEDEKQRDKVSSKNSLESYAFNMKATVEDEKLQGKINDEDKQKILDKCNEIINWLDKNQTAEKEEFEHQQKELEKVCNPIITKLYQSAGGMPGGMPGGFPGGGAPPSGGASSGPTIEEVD
The assay is described as follows: Percent complexation of peptides with Hsc70 by size exclusion chromatography. The format is binding. To be noted: 60 minutes at 30° C., SEC, 214 nm. The procedure:
In a separate experiment, further variants of the peptide NLLRLTG (SEQ ID NO: 70) were generated and the ability of these peptides to form a peptide-Hsc70 complex was analyzed. Peptides were again synthesized using standard Fmoc solid-phase chemical synthesis, as described above. Individual peptides were solubilized in pH adjusted water at a concentration of 250 μM, and spiked with polysorbate 20 to a final concentration of 0.1%. To form a peptide-Hsc70 complex, Hsc70 (1 mg/ml, 0.1% polysorbate) was mixed with peptide at peptide:Hsc70 molar ratios of, 0.25:1, 0.5:1, 1:1, 2:1, and 4:1, for 60 minutes at 30° C. Following incubation, samples were cooled for 5 minutes at room temperature and transferred to HPLC vials for analysis. To evaluate the quantity of the complex in the solution, 20 μl (10 μg) of the sample was loaded on a size exclusion chromatography column TSKgel SuperSW3000 (Tosoh Bioscience) at a flow rate of 0.2 ml/min with 1×PBS as a running buffer. The data was collected by measuring the absorbance at 214 nm.
The percent of Hsc70 bound to peptide was calculated by SEC. As shown in the SEC chromatogram depicted in FIG. 1, recombinant human heat shock cognate 71 kDa protein (Hsc70) appeared as monomer (M), dimer (D), trimer (T), and higher order high molecular weight (HMW) oligomeric species when subjected to SEC chromatography. Resolution and evaluation of the extent to which peptide-Hsc70 complex was formed with a given peptide or peptide mixture was complicated by the close elution of a complex of Hsc70 monomer with peptide (Msh). The peaks corresponding to monomer and complex overlap and were not fully resolved by conventional SEC media. In order to more accurately calculate the extent of complex formation, the following data analytical method was used. […] Peak area integrations of these protein species were well resolved from the complex and monomer. Further, the extent to which complex was formed appeared to be […] to the extent to which trimer and dimer were recruited to complex formation. Because of this observation, changes in trimer and dimer reflected the extent to which monomer was recruited to the formation of complex. Thus, the progression of changes in the level of trimer and dimer was used to calculate expected changes in the peak areas of overlapping complex and monomer species, and these calculated peak areas were used to calculate net formation of complex.
Terms used for various chromatographic fractions include: High Molecular Weight (HMW), Trimer and other mid-order oligomer (T), Dimer (D), Complex (C), Monomer shoulder (Msh), and Monomer (M) (see FIG. 1). Peak areas of the various fractions were extracted from SEC data and the percentage of peptide-Hsc70 complex formation was calculated using the following set of equations: % Complex=(AREAcomplex/AREATotal)×100 AREAcomplex=AREATotal−(AreaT+D+AreaMshx+AreaMx) AREATotal=AREAT+D,C,Msh,M+(AREAHDw-x−AREAHDW-0) AREAMshx=AREAMsh0×(AREA(T+D)x)/(AREA(T+D)0) AREAMx=AREAM0×(AREA(T+D)x)/(AREA(T+D)0)
AREATotal is the sum of total integrated peak areas from trimer/oligomer region through the monomer peak and excludes the initial HMW peak area but includes the excess increase of the HMW peak area that was observed when peptide was added. The HMW peak was excluded from the complexation calculation on the basis that it was aggregated protein that was not functional for complexation. This correction took into account AreaTotal factors in the minor increase in HMW area, adding it back to base total area used to calculate area of complex.
The foregoing method was applied to the SEC chromatogram for each complexation reaction by applying vertical lines to the chromatogram to produce HMW, T, C, D, and M segments (as shown in FIG. 1), calculating the area under the curve for of each of the indicated HMW, T, C, D, and M segments, and inputting the values into the equations described above.

T1 sequence (P11142 whole entry): as above

Take “LGVVRPRALHRELDLVDDSPTPGSPGSFFRKNWLRLTW [polypeptide comprising PEP006]”: the “column retention time of complexation products when rhHsc70 bound” value in assay [1] (polypeptide:Hsc70 molar ratios 0.125:1 to 4:1, FIG. 3A) is given as “column retention time became shorter”.

In the case of FFRKNWLRLTW [PEP006], in assay [2] (peptide:Hsc70 molar ratio 0.25:1), the “Percent complexation of peptides with Hsc70, 0.25:1” value is 25.4%. Further, in assay [2] (peptide:Hsc70 molar ratio 0.5:1), the “Percent complexation of peptides with Hsc70, 0.5:1” value was found to be 53.4%. Further, in assay [2] (peptide:Hsc70 molar ratio 1:1), the “Percent complexation of peptides with Hsc70, 1:1” value came out at 81.5%. In addition, in assay [2] (peptide:Hsc70 molar ratio 2:1), the “Percent complexation of peptides with Hsc70, 2:1” value is 88.3%. For the same sequence, the “Percent complexation of peptides with Hsc70, 4:1” value in assay [2] (peptide:Hsc70 molar ratio 4:1) is on record as 91.8%. In assay [1] (PEP006:rhHsc70 molar ratios 0.25:1 to 3:1, 37° C. 60 minutes, FIG. 2), the “column retention time of complexation products when rhHsc70 bound” value is reported as “column retention time became shorter”.

The values above are taken from patent US11065317B2, “Heat shock protein-binding peptide compositions and methods of use thereof” (Agenus Inc., priority 2018, dated 2021).
